How the values were obtained:
[1] = target: T1, ADAMTS13 (human, UniProt Q76LX8 75-1427); assay: ELISA; plate binding: 100 nM VWF96 or variant adsorbed on 96-well plates (50 mM sodium bicarbonate pH 9.6, overnight, 4 °C); 0-600 nM ADAMTS13 in PBS/1% BSA/80 mM EDTA, room temperature, 1.5 h (legend: 1 h); detected with biotinylated anti-ADAMTS13 TSP2-4 polyclonal antibody; one-site fit; apparent KD; details: one partner purified
T1 construct: ADAMTS13, recombinant; holds TSP2-4 (detected with an anti-ADAMTS13 TSP2-4 polyclonal antibody); The introduction says the short propeptide is removed before secretion; also called recombinant ADAMTS13
T1 sequence (looked up): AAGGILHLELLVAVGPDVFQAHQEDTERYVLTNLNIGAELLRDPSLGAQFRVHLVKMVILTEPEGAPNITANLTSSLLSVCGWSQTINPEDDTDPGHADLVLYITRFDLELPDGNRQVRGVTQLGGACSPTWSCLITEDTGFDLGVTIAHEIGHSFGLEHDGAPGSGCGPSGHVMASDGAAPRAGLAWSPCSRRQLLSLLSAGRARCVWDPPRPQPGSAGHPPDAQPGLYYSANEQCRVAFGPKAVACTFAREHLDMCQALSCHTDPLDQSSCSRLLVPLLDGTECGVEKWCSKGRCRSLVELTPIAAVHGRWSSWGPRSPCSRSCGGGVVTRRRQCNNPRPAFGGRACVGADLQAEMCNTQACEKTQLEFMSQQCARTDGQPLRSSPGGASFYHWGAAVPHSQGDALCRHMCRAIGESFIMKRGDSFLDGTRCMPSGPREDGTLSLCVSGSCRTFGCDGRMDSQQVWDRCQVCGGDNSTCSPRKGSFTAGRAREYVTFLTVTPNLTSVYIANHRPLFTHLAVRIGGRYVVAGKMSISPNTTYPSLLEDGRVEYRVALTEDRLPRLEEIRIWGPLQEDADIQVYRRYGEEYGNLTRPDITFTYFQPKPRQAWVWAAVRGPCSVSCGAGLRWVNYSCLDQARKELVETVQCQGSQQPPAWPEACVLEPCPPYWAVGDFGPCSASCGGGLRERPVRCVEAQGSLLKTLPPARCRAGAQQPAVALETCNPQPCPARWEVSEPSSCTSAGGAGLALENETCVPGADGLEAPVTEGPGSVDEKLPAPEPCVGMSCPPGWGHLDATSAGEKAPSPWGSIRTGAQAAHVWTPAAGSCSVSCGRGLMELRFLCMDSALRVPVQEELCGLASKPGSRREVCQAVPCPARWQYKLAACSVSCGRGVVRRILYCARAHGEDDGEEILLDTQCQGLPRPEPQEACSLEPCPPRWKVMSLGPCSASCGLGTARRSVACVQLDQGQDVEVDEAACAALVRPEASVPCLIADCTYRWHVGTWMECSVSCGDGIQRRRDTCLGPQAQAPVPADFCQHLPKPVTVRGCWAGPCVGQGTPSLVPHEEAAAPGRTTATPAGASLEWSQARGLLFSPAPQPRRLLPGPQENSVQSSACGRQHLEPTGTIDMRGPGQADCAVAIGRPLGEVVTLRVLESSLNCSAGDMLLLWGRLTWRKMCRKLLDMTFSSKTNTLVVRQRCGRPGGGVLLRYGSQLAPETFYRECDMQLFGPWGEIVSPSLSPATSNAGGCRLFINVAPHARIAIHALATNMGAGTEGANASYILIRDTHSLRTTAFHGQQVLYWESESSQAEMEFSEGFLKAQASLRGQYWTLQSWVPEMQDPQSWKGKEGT

[2] = target: VWF96-Spacer (human, UniProt P04275 1573-1668, L1664T | V1665N | L1666Q); assay: ELISA
[3] = target: VWF96-MP (human, UniProt P04275 1573-1668, L1603N); assay: ELISA
[4] = target: T2, ADAMTS13 MDTCS(E225Q) (human, UniProt Q76LX8 78-682, E225Q, N-linked glycans at Asn142, Asn146, Asn552, Asn579, Asn614, Asn667 and an O-linked glycan on Ser399 (seen in the structure)); assay: ITC; 27 μM MDTCS(E225Q) in the cell, injections of 279 μM tag-free VWF73; 20 mM HEPES pH 7.5, 150 mM NaCl, 5 mM CaCl2; 25 °C; mean of four experiments; details: both partners purified
T2 construct: Drosophila BiP signal cleaved off to give the native N terminus Gly78; Vector pMT-BiP-PURO; also called MDTCS(E225Q) active-site mutant; not shown: 6xHis, C-terminal, kept
T2 sequence (looked up): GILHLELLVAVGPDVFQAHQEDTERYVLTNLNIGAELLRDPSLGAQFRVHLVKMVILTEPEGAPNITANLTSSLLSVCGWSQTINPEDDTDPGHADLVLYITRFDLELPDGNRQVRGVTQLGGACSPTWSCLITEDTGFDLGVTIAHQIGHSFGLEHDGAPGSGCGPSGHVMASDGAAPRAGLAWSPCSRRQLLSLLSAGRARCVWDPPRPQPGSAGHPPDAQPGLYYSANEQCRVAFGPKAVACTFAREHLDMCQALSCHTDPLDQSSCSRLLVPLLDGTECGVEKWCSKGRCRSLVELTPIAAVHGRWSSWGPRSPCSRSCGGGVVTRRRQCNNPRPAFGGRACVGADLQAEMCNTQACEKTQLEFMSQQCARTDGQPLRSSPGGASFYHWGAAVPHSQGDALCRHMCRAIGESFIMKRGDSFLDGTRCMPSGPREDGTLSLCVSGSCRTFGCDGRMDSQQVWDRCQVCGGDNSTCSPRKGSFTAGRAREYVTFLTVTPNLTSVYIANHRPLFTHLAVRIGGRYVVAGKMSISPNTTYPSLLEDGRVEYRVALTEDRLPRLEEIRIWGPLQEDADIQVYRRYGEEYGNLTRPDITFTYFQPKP

| Binder | Kd [1] | other results |
| --- | --- | --- |
| VWF96 (VWF A2 domain fragment Gly1573-Arg1668 with N-terminal 6xHis-SUMO tag and C-terminal HSV-6xHis tag) (domain or fragment, von Willebrand factor, A2 domain fragment, residues Gly1573-Arg1668 (96 amino acids); SUMO tag is a derivative of yeast Smt3 (13 kDa, Invitrogen); Vector pET25b(+); About 32 kDa with tags; also called wild-type VWF96; source: E. coli BL21 (DE3), purified (Ni2+ HiTrap Chelating HP, Capto Q ImpRes); not shown: 6xHis-SUMO, N-terminal, kept; HSV-6xHis, C-terminal, kept) GNRTNTGLALRYLSDHSFLVSQGDREQAPNLVYMVTGNPASDEIKRLPGDIQVVPIGVGPNANVQELERIGWPNAPILIQDFETLPREAPDLVLQR | 40 nM | – |
| VWF96-Cys (domain or fragment, human, UniProt P04275 1573-1668, looked up, Variant of the VWF96 vector; source: E. coli BL21 (DE3), purified (Ni2+ HiTrap Chelating HP, Capto Q ImpRes); not shown: 6xHis-SUMO, N-terminal, kept; HSV-6xHis, C-terminal, kept) GNRTNTGLALRYLSDHSFLVSQGDREQAPNLVYMVTGNPASDEIKRLPGDIQVVPIGVGPNANVQELERQGYPNSPQQQQDFETLPREAPDLVLQR | 632 nM | – |
| VWF96-Dis (domain or fragment, human, UniProt P04275 1573-1668, looked up, Variant of the VWF96 vector; source: E. coli BL21 (DE3), purified (Ni2+ HiTrap Chelating HP, Capto Q ImpRes); not shown: 6xHis-SUMO, N-terminal, kept; HSV-6xHis, C-terminal, kept) GNRTNTGLALRYLSDHSFLVSQGDREQAPNLVYMVTGNPASAEQEELPGTIQVVPIGVGPNANVQELERIGWPNAPILIQDFETLPREAPDLVLQR | 615 nM | – |
| ADAMTS13 (enzyme) AAGGILHLELLVAVGPDVFQAHQEDTERYVLTNLNIGAELLRDPSLGAQFRVHLVKMVILTEPEGAPNITANLTSSLLSVCGWSQTINPEDDTDPGHADLVLYITRFDLELPDGNRQVRGVTQLGGACSPTWSCLITEDTGFDLGVTIAHEIGHSFGLEHDGAPGSGCGPSGHVMASDGAAPRAGLAWSPCSRRQLLSLLSAGRARCVWDPPRPQPGSAGHPPDAQPGLYYSANEQCRVAFGPKAVACTFAREHLDMCQALSCHTDPLDQSSCSRLLVPLLDGTECGVEKWCSKGRCRSLVELTPIAAVHGRWSSWGPRSPCSRSCGGGVVTRRRQCNNPRPAFGGRACVGADLQAEMCNTQACEKTQLEFMSQQCARTDGQPLRSSPGGASFYHWGAAVPHSQGDALCRHMCRAIGESFIMKRGDSFLDGTRCMPSGPREDGTLSLCVSGSCRTFGCDGRMDSQQVWDRCQVCGGDNSTCSPRKGSFTAGRAREYVTFLTVTPNLTSVYIANHRPLFTHLAVRIGGRYVVAGKMSISPNTTYPSLLEDGRVEYRVALTEDRLPRLEEIRIWGPLQEDADIQVYRRYGEEYGNLTRPDITFTYFQPKPRQAWVWAAVRGPCSVSCGAGLRWVNYSCLDQARKELVETVQCQGSQQPPAWPEACVLEPCPPYWAVGDFGPCSASCGGGLRERPVRCVEAQGSLLKTLPPARCRAGAQQPAVALETCNPQPCPARWEVSEPSSCTSAGGAGLALENETCVPGADGLEAPVTEGPGSVDEKLPAPEPCVGMSCPPGWGHLDATSAGEKAPSPWGSIRTGAQAAHVWTPAAGSCSVSCGRGLMELRFLCMDSALRVPVQEELCGLASKPGSRREVCQAVPCPARWQYKLAACSVSCGRGVVRRILYCARAHGEDDGEEILLDTQCQGLPRPEPQEACSLEPCPPRWKVMSLGPCSASCGLGTARRSVACVQLDQGQDVEVDEAACAALVRPEASVPCLIADCTYRWHVGTWMECSVSCGDGIQRRRDTCLGPQAQAPVPADFCQHLPKPVTVRGCWAGPCVGQGTPSLVPHEEAAAPGRTTATPAGASLEWSQARGLLFSPAPQPRRLLPGPQENSVQSSACGRQHLEPTGTIDMRGPGQADCAVAIGRPLGEVVTLRVLESSLNCSAGDMLLLWGRLTWRKMCRKLLDMTFSSKTNTLVVRQRCGRPGGGVLLRYGSQLAPETFYRECDMQLFGPWGEIVSPSLSPATSNAGGCRLFINVAPHARIAIHALATNMGAGTEGANASYILIRDTHSLRTTAFHGQQVLYWESESSQAEMEFSEGFLKAQASLRGQYWTLQSWVPEMQDPQSWKGKEGT | – | Kd [2]: 241 nM; Kd [3]: 65 nM |
| VWF73 (tag-free VWF A2 domain fragment Asp1596-Arg1668) (domain or fragment, von Willebrand factor, human, A2 domain fragment, residues Asp1596-Arg1668 (73 amino acids); Vector pET-SUMO; also called tag-free VWF73; source: E. coli One Shot BL21 Star (DE3), purified as VWF96; His-SUMO tag removed with SUMO protease-1, passed over Ni2+ column; not shown: 6xHis-SUMO, N-terminal, cleaved) DREQAPNLVYMVTGNPASDEIKRLPGDIQVVPIGVGPNANVQELERIGWPNAPILIQDFETLPREAPDLVLQR | – | Kd [4]: 450 nM |
| VWF87(ΔSpacer) (domain or fragment, von Willebrand factor, A2 domain fragment: VWF96 (Gly1573-Arg1668) with residues Glu1660-Arg1668 deleted, 87 amino acids; Variant of the VWF96 vector; the C-terminal HSV-6xHis tag follows residue 1659; source: E. coli BL21 (DE3), purified (Ni2+ HiTrap Chelating HP, Capto Q ImpRes); not shown: 6xHis-SUMO, N-terminal, kept; HSV-6xHis, C-terminal, kept) GNRTNTGLALRYLSDHSFLVSQGDREQAPNLVYMVTGNPASDEIKRLPGDIQVVPIGVGPNANVQELERIGWPNAPILIQDFETLPR | 475 nM | – |

From publication PMC6706451, “Crystal structure and substrate-induced activation of ADAMTS13” (Nature Communications, 2019)
